Molecular target: C18 (a CaM binding peptide from CaMKIIα)
Test: FRET or BRET

WT-CaM of the BRET construct (Venus, CaM, target peptide, RLuc8) (from UniProt P0DP26 1-149) (natural protein)
Kd from the Ca2+ titration curve of the BRET construct: 3.92 µM

Source: paper PMC8383114
